Measurements taken from the Human Domainome abundance scans (Beltran et al. 2025).
± gives the uncertainty stated by the source.

B1: Calcium-binding protein 2, residues 155 to 219; numbered along this chain, Q9NPB3 (parent)
chain: RELRDAFREFDTNGDGRISVGELRAALKALLGERLSQREVDEILQDVDLNGDGLVDFEEFVRMMS

Variants of: B1
Assay: abundance fitness (aPCA) (normalised: wild type 0, dead -1); higher = more abundant; growth selection in yeast, the domain comes from the species named
Conditions: Homo sapiens

Which abundance fitness does the source give for RELRDAFREFDTNGDGRISVGELRAALKALLGERLEQREVDEILQDVDLNGDGLVDFEEFVRMMS here?
The abundance fitness was 0.024 ± 0.07.

For RELRDAFREFDTNGDGRISVGELRAALKALLGERLHQREVDEILQDVDLNGDGLVDFEEFVRMMS, which abundance fitness is on record?
Its abundance fitness is -0.564 ± 0.28.

With RELRDAFREFDTNGDGRISVGELRAALKALLGKRLSQREVDEILQDVDLNGDGLVDFEEFVRMMS as the variant, how does the abundance fitness read?
Its abundance fitness is 0.037 ± 0.21.

For RELRDAFREFDTNGDGRISVGELRAALKALLGPRLSQREVDEILQDVDLNGDGLVDFEEFVRMMS, which abundance fitness is on record?
The abundance fitness was -0.007 ± 0.08.

With RELRDAFREFDTNGDGRISVGELRAALKALLGTRLSQREVDEILQDVDLNGDGLVDFEEFVRMMS as the variant, how does the abundance fitness read?
Its abundance fitness is -0.032 ± 0.056.

Which abundance fitness does the source give for RELRDAFREFDTNGDGRISVGELRAALKALLGMRLSQREVDEILQDVDLNGDGLVDFEEFVRMMS here?
Its abundance fitness is -0.049 ± 0.12.

For RELRDAFREFDTNGDGRISVGELRAALKALLGQRLSQREVDEILQDVDLNGDGLVDFEEFVRMMS, which abundance fitness is on record?
Its abundance fitness is -0.009 ± 0.071.

With RELRDAFREFDTNGDGRISVGELRAALKALLGLRLSQREVDEILQDVDLNGDGLVDFEEFVRMMS as the variant, how does the abundance fitness read?
Its abundance fitness is -0.195 ± 0.059.

Which abundance fitness does the source give for RELRDAFREFDTNGDGRISVGELRAALKALLGSRLSQREVDEILQDVDLNGDGLVDFEEFVRMMS here?
The abundance fitness was -0.045 ± 0.068.

For RELRDAFREFDTNGDGRISVGELRAALKALLGCRLSQREVDEILQDVDLNGDGLVDFEEFVRMMS, which abundance fitness is on record?
The abundance fitness was 0.006 ± 0.094.

Which abundance fitness does the source give for RELRDAFREFDTNGDGRISVGELRAALKALLGDRLSQREVDEILQDVDLNGDGLVDFEEFVRMMS here?
The abundance fitness was 0.074 ± 0.092.

Which abundance fitness does the source give for RELRDAFREFDTNGDGRISVGELRAALKALLGFRLSQREVDEILQDVDLNGDGLVDFEEFVRMMS here?
The abundance fitness was -0.109 ± 0.16.

For RELRDAFREFDTNGDGRISVGELRAALKALLGARLSQREVDEILQDVDLNGDGLVDFEEFVRMMS, which abundance fitness is on record?
Its abundance fitness is 0.002 ± 0.056.

For RELRDAFREFDTNGDGRISVGELRAALKALLGIRLSQREVDEILQDVDLNGDGLVDFEEFVRMMS, which abundance fitness is on record?
The abundance fitness was -0.074 ± 0.16.

Which abundance fitness does the source give for RELRDAFREFDTNGDGRISVGELRAALKALLGYRLSQREVDEILQDVDLNGDGLVDFEEFVRMMS here?
The abundance fitness was -0.119 ± 0.19.

With RELRDAFREFDTNGDGRISVGELRAALKALMGERLSQREVDEILQDVDLNGDGLVDFEEFVRMMS as the variant, how does the abundance fitness read?
The abundance fitness was 0.169 ± 0.067.

With RELRDAFREFDTNGDGRISVGELRAALKALWGERLSQREVDEILQDVDLNGDGLVDFEEFVRMMS as the variant, how does the abundance fitness read?
Its abundance fitness is -0.26 ± 0.16.

With RELRDAFREFDTNGDGRISVGELRAALKALKGERLSQREVDEILQDVDLNGDGLVDFEEFVRMMS as the variant, how does the abundance fitness read?
The abundance fitness was 0.134 ± 0.095.

For RELRDAFREFDTNGDGRISVGELRAALKALPGERLSQREVDEILQDVDLNGDGLVDFEEFVRMMS, which abundance fitness is on record?
The abundance fitness was 0.028 ± 0.079.

With RELRDAFREFDTNGDGRISVGELRAALKALRGERLSQREVDEILQDVDLNGDGLVDFEEFVRMMS as the variant, how does the abundance fitness read?
Its abundance fitness is -0.043 ± 0.091.

Which abundance fitness does the source give for RELRDAFREFDTNGDGRISVGELRAALKALVGERLSQREVDEILQDVDLNGDGLVDFEEFVRMMS here?
Its abundance fitness is -0.048 ± 0.074.

Which abundance fitness does the source give for RELRDAFREFDTNGDGRISVGELRAALKALQGERLSQREVDEILQDVDLNGDGLVDFEEFVRMMS here?
The abundance fitness was 0.086 ± 0.082.

With RELRDAFREFDTNGDGRISVGELRAALKALYGERLSQREVDEILQDVDLNGDGLVDFEEFVRMMS as the variant, how does the abundance fitness read?
The abundance fitness was -0.064 ± 0.18.

With RELRDAFREFDTNGDGRISVGELRAALKALIGERLSQREVDEILQDVDLNGDGLVDFEEFVRMMS as the variant, how does the abundance fitness read?
The abundance fitness was -0.061 ± 0.14.

For RELRDAFREFDTNGDGRISVGELRAALKALGGERLSQREVDEILQDVDLNGDGLVDFEEFVRMMS, which abundance fitness is on record?
Its abundance fitness is 0.076 ± 0.048.

Which abundance fitness does the source give for RELRDAFREFDTNGDGRISVGELRAALKALTGERLSQREVDEILQDVDLNGDGLVDFEEFVRMMS here?
The abundance fitness was 0.074 ± 0.1.

For RELRDAFREFDTNGDGRISVGELRAALKALHGERLSQREVDEILQDVDLNGDGLVDFEEFVRMMS, which abundance fitness is on record?
The abundance fitness was -0.021 ± 0.13.

Which abundance fitness does the source give for RELRDAFREFDTNGDGRISVGELRAALKALLGECLSQREVDEILQDVDLNGDGLVDFEEFVRMMS here?
The abundance fitness was 0.056 ± 0.1.

With RELRDAFREFDTNGDGRISVGELRAALKALLGEVLSQREVDEILQDVDLNGDGLVDFEEFVRMMS as the variant, how does the abundance fitness read?
Its abundance fitness is -0.129 ± 0.088.

Which abundance fitness does the source give for RELRDAFREFDTNGDGRISVGELRAALKALLGEQLSQREVDEILQDVDLNGDGLVDFEEFVRMMS here?
The abundance fitness was 0.088 ± 0.11.

Which abundance fitness does the source give for RELRDAFREFDTNGDGRISVGELRAALKALLGEALSQREVDEILQDVDLNGDGLVDFEEFVRMMS here?
Its abundance fitness is 0.045 ± 0.084.

With RELRDAFREFDTNGDGRISVGELRAALKALLGEGLSQREVDEILQDVDLNGDGLVDFEEFVRMMS as the variant, how does the abundance fitness read?
Its abundance fitness is 0.032 ± 0.077.

With RELRDAFREFDTNGDGRISVGELRAALKALLGEMLSQREVDEILQDVDLNGDGLVDFEEFVRMMS as the variant, how does the abundance fitness read?
The abundance fitness was -0.207 ± 0.088.

Which abundance fitness does the source give for RELRDAFREFDTNGDGRISVGELRAALKALLGEKLSQREVDEILQDVDLNGDGLVDFEEFVRMMS here?
Its abundance fitness is 0.187 ± 0.092.

For RELRDAFREFDTNGDGRISVGELRAALKALLGEFLSQREVDEILQDVDLNGDGLVDFEEFVRMMS, which abundance fitness is on record?
The abundance fitness was -0.298 ± 0.24.

For RELRDAFREFDTNGDGRISVGELRAALKALLGETLSQREVDEILQDVDLNGDGLVDFEEFVRMMS, which abundance fitness is on record?
Its abundance fitness is 0.018 ± 0.062.

For RELRDAFREFDTNGDGRISVGELRAALKALLGESLSQREVDEILQDVDLNGDGLVDFEEFVRMMS, which abundance fitness is on record?
Its abundance fitness is -0.019 ± 0.071.

Which abundance fitness does the source give for RELRDAFREFDTNGDGRISVGELRAALKALLGEPLSQREVDEILQDVDLNGDGLVDFEEFVRMMS here?
The abundance fitness was 0.01 ± 0.12.

Which abundance fitness does the source give for RELRDAFREFDTNGDGRISVGELRAALKALLGELLSQREVDEILQDVDLNGDGLVDFEEFVRMMS here?
Its abundance fitness is -0.177 ± 0.06.

For RELRDAFREFDTNGDGRISVGELRAALKALLGEWLSQREVDEILQDVDLNGDGLVDFEEFVRMMS, which abundance fitness is on record?
Its abundance fitness is -0.558 ± 0.22.

For RELRDAFREFDTNGDGRISVGELRAALKALLGEELSQREVDEILQDVDLNGDGLVDFEEFVRMMS, which abundance fitness is on record?
The abundance fitness was 0.14 ± 0.076.

With RELRDAFREFDTNGDGRISVGELRAALKALLGENLSQREVDEILQDVDLNGDGLVDFEEFVRMMS as the variant, how does the abundance fitness read?
The abundance fitness was 0.043 ± 0.3.
